# The DeepSol protein solubility set
# Test: soluble on expression in E. coli; label from the status in PepcDB or PDB records
row,Sequence,soluble on expression in E. coli
1,MASTELSLKRTLTDILEDELYHTNPGHSQFTSHYQNYHPNASITPYKLVNKNKENNTFTWNHSLQHQNESSAASIPPQQTYHFPIFNKYADPTLTTTTSFTTSEATANDRQINNVHLIPNEIKGASETPLQKTVNLKNIMKVSDPYVPTRNTFNYDVKISNDFFDNGDNLYGNDEEVLFYEDNYNPKMQWSLQDNSAAINNEDARAIFNNEFDSDDDDISDDEEDEIEENCLQQEQHQEEPLLSLDVTPISMFGSDQKTGRAKSSSHLFNEYSYVDSNMDSISSVVSEDLLDERGHEKIEDEDEDNDLDEDDIYDISLLKNRRKQSFVLNKNTIDFERFPSPSTSANVPSTATTGKRKPAKSSSNRSCVSNSNENGTLERIKKPTSAVVSSNASRRKLINYTKKHLSSHSSTNSNSKPSTASPSAHTSSSDGNNEIFTCQIMNLITNEPCGAQFSRSYDLTRHQNTIHAKRKIVFRCSECIKILGSEGYQKTFSRLDALTRHIKSKHEDLSLEQRQEVTKFAKANIGYVMG,not soluble
2,GKPDGKIDYADAVFKGCSDPGYLLGLNNTFRYKNFDLNVYFYGQLDLLKSGSYKDYWIVGSGTMTGVNNLYRGYNMPTSAKEVWSHDNTSGKMPGYFQYMSNYGYGDYFLEKSWFIRCRNITLGYTLPVKSAKKLVSNVRIYADVNNLFTITPYDGLDVETDDSYWAYPNVRSFSIGLDITF,not soluble
3,MGHHHHHHSHRSSDCPYIVQFYGALFREGDCWICMELMSTSFDKFYKYVYSVLDDVIPEEILGKITLATVKALNHLKENLKIIHRDIKPSNILLDRSGNIKLCDFGISGQLVDSIAKTRDAGCRPYMAPERIDPSASRQGYDVRSDVWSLGITLYELATGRFPYPKWNSVFDQLTQVVKGDPPQLS,not soluble
4,VLQLAEQIDVVIFDLNGTLTTGVPVVKEYAVLNDADLSSEHFLSICNVLEGQSKHPFGKAIQSFTQGINKQKFNIANLDHSNHSGISAEINGIQYTIGSKTLMQEIGISTSSLENQMNLVAGDSLVFLARNKQLLGYLVITDPLRKDAKQTVDALIKMGKEVHLCTGADEKTAYRYAQALGIKKVHANCVATTINTEDRSKPVYIKSLQNQGLKVAMIGDAANDANALAASDFGIAVLSQDSDEITQQHASAIIQSGTILPIANAFAISKQTVNNINQNLLISLGYNLTTV,not soluble
5,MGSDKIHHHHHHMHFTPALKPGKLLKRYKRFLADVQLEDGSEITVHCPNTGSMRNCLFPGETLWFSTSSNTKRKYAHTWELMTTPTGALIGIHSGNANALVEEALNKGIITELTGYDSLRREVKYGDENSRIDILLECAQKTACYIEVKSCTLQENGQGYFPDAVSLRGQKHLRELMHMASLGHRAVLLFVVQHTDIMSVAPAAHIDPEYANLLKKSVLSGVEVLAYRCEISPSEIHLAQSCPVRV,not soluble
6,MAIDSKPHDDLQLFKTNLHPCGYWPDRWASDLVMDPNDPRLGAIYPQTLAWGFRRSGNLLYRPHCEHCNACVPVRVNVNAFVPNRSQRRCLARNATLVTRIVPAERNAEQLSLYRRYLHQRHPDGGMDGHGAIEFDQFLIGPWGYGRFMEIREPATNGTPGQLLAVAVTDLTHQALSAVYTFYEPNAAARGLGTLAILHQIHWAQREQRPYLYLGYWIKDHFKMDYKRRFQKLEIYDGYRWRPFSTTYPTTHTLLEHHHHHH,soluble
7,GDQPVINFGIISTESSQNLKSIWEPFLKDMSQQTGYQVKAFFAPDYAGIIQGMRFDKVDIAWYGNKAAMEAVDRAHGEIFAQTVAASGAPGYWSLLIANKDSKIDSLEDMLANAKSLTFGNGDPNSTSGYLVPGYYVFAKNNVDPVKAFKRTLNSSHEVNALAVANKQVDVATFNTEGMERLELTQPEKARQLKVIWKSPLIPGDPLVWRNNLSDEQKNKLRDFFFKYGANAEQKKVLADLQWSKFQASDDDQLLPIRQLELFKQRTDVANNANLGAEEKAAKLKALDEELAKLEKRMAEREQKTAANAG,soluble
8,MAHHHHHHGHHHQLENLYFQGEETAVPENSGANTELVSGESEHSTNEADKQNEGEHARENKLEKAEGVATASETASPASNEAATTETAEAASAAKPEEKASEVVAETPSAEAKPKSDKETEAKPEATNQGDESKPAAEANKTEKEVQPDVPKNTEKTLKPKEIKFNSWEELLKWEPGAREDDAINRGSVVLASRRTGHLVNEKASKEAKVQALSNTNSKAKDHASVGGEEFKAYAFDYWQYLDSMVFWEGLVPTPDVIDAGHRNGVPVYGTLFFNWSNSIADQERFAEALKQDADGSFPIARKLVDMAKYYGYDGYFINQETTGDLVKPLGEKMRQFMLYSKEYAAKVNHPIKYSWYDAMTYNYGRYHQDGLGEYNYQFMQPEGDKVPADNFFANFNWDKAKNDYTIATANWIGRNPYDVFAGLELQQGGSYKTKVKWNDILDENGKLRLSLGLFAPDTITSLGKTGEDYHKNEDIFFTGYQGDPTGQKPGDKDWYGIANLVADRTPAVGNTFTTSFNTGHGKKWFVDGKVSKDSEWNYRSVSGVLPTWRWWQTSTGEKLRAEYDFTDAYNGGNSLKFSGDVAGKTDQDVRLYSTKLEVTEKTKLRVAHKGGKGSKVYMAFSTTPDYKFDDADAWKELTLSDNWTNEEFDLSSLAGKTIYAVKLFFEHEGAVKDYQFNLGQLTISDNHQEPQSPTSFSVVKQSLKNAQEAEAVVQFKGNKDADFYEVYEKDGDSWKLLTGSSSTTIYLPKVSRSASAQGTTQELKVVAVGKNGVRSEAATTTFDWGMTVKDTSLPKPLAENIVPGATVIDSTFPKTEGGEGIEGMLNGTITSLSDKWSSAQLSGSVDIRLTKSRTVVRWVMDHAGAGGESVNDGLMNTKDFDLYYKDADGEWKLAKEVRGNKAHVTDITLDKPITAQDWRLNVVTSDNGTPWKAIRI,soluble
9,MVEPGRIGGNQTRLAAVLLDVSTPNTLNADFDLMRSVAGITDARNEEIRAMLQAFIGRMSGVPPSVWGGLAAARFQDVVDRWNAESTRLYHVLHAIADTIRHNEAALREAGQIHARHIAAAGGDL,soluble
10,NPHMWWLQDADPENNSRQASPSQESINQLVYMGFDTVVAEAALRVFGGNVQLAAQTLAHHGGSLPPDLQF,soluble
11,MGHHHHHHSHMPFTPPVVKRLLGWKKSAGGSGGAGGGEQNGQEEKWCEKAVKSLVKKLKKTGRLDELEKAITTQNCNTKCVTIPSTCSEIWGLSTPNTIDQWDTTGLYSFSEQTRSLDGRLQVSHRKGLPHVIYCRLWRWPDLHSHHELKAIENCEYAFNLKKDEVCVNPYHYQRVETP,soluble
12,MNPEEQIVTWLISLGVLESPKKTICDPEEFLKSSLKNGVVLCKLINRLMPGSVEKFCLDPQTEADCINNINDFLKGCATLQVEIFDPDDLYSGVNFSKVLSTLLAVNKATEDQLSERPCGRSSSLSAANTSQTNPQGAVSSTVSGLQRQSKTVEMTENGSHQLIVKARFNFKQTNEDELSVCKGDIIYVTRVEEGGWWEGTLNGRTGWFPSNYVREIKSSERPLSPKAVKGFETAPLTKNYYTVVLQNILDTEKEYAKELQSLLVTYLRPLQSNNNLSTVEVTSLLGNFEEVCTFQQTLCQALEECSKFPENQHKVGGCLLSLMPHFKSMYLAYCANHPSAVNVLTQHSDELEQFMENQGASSPGILILTTNLSKPFMRLEKYVTLLQELERHMEDTHPDHQDILKAIVAFKTLMGQCQDLRKRKQLELQILSEPIQAWEGEDIKNLGNVIFMSQVMVQYGACEEKEERYLMLFSNVLIMLSASPRMSGFIYQGKIPIAGTVVTRLDEIEGNDCTFEITGNTVERIVVHCNNNQDFQEWLEQLNRLIRGPASCSSLSKTSSSSCSAHSSFSSTGQPRGPLEPPQIIKPWSLSCLRPAPPLRPSAALGYKERMSYILKESSKSPKTMKKFLHKRKTERKPSEEEYVIRKSTAALEEDAQILKVIEAYCTSANFQQGHGSSTRKDSIPQVLLPEEEKLIIEETRSNGQTIMEEKSLVDTVYALKDEVRELKQENKRMKQCLEEELKSRRDLEKLVRRLLKQTDECIRGESSSKTSILP,soluble
13,MASLNCHDKCSTTTQSDINLKDELLSSTSIECRPGNDLLESLHKEQNRWYSETKTFSDSSQHTGRGFEKYWFCYGIKCYYFVMDRKTWSGCKQTCQISSLSLLKIDNEDELKFLKLLVPSDSYWIGLSYDNKKKDWAWINNGPSKLALNTMKYNIRDGGCMLLSKTRLDNDNCDKSFICICGKRLDKFPH,soluble
14,MRHFDASQPLRVAVLGTGFGSKVHIPALQHHSETTVQAVYHRQPDRAAAIAVQFGIPNAYSDLDQLLADPAIEAVTIASPPFLHYPMAWAALSAGKSVLLEKPTTLNVEEARALWKLASSQGLTVTLDFEYRFVPAWQYVAELLAEGVIGQPWLVKLDWLMSSRADASRPWNWYALRSQGGGALGALGSHSFDYLAWLFGPARRLQARLFTAIQERPDATTGELKPVDSDDTDLIQLELAEGVPCQISLSSVFRQGRGHWLEVYGDRGTLILGSSNQKDYVHGFQVWFASAGQALQELTVPQRLAFRQEFADGRLAPFLRVVDHWLADLRHGQMTAPSLKEGLYSQLLIDLCWQSQRSGEWQTVPELNRFLLEHHHHHH,not soluble
15,MSVEKIPGYTYGETENRAPFNLEDLKLLKEAVMFTAEDEEYIQKAGEVLEDQVEEILDTWYGFVGSHPHLLYYFTSPDGTPNEKYLAAVRKRFSRWILDTSNRSYDQAWLDYQYEIGLRHHRTKKNQTDNVESVPNIGYRYLVAFIYPITATMKPFLARKGHTPEEVEKMYQAWFKATTLQVALWSYPYVKYGDF,soluble
16,MGSDKIHHHHHHAQKKTQKTYIPWSNGKLVVSEEGRYLKHENGTPFFWLGETGWLLPERLNRDEAEYYLEQCKRRGYNVIQVQTLNNVPSMNIYGQYSMTDGYNFKNINQKGVYGYWDHMDYIIRTAAKKGLYIGMVCIWGSPVSHGEMNVDQAKAYGKFLAERYKDEPNIIWFIGGDIRGDVKTAEWEALATSIKAIDKNHLMTFHPRGRTTSATWFNNAPWLDFNMFQSGHRRYGQRFGDGDYPIEENTEEDNWRFVERSMAMKPMKPVIDGEPIYEEIPHGLHDENELLWKDYDVRRYAYWSVFAGSFGHTYGHNSIMQFIKPGVGGAYGAKKPWYDALNDPGYNQMKYLKNLMLTFPFFERVPDQSVIAGQNGERYDRAIATRGNDYLMVYNYTGRPMEVDFSKISGAKKNAWWYTTKDGKLEYIGEFDNGVHKFQHDSGYSSGNDHVLIVVDSSKDYVKKDCYQIDTHE,not soluble
17,MARVYVSTVVNARNDRVWARVRDFNGLPNWHPAIAESRIEGGEPSDKIGCVRDFRLRNGDRIREKLLGLSDYDMFCTYSILESPMGVENYVATLRLTPVTDGDQTFMEWTAEFDCAPERETELVNNIGGGVFQGGFDALKRVFGGLEHHHHHH,soluble
18,MGSDKIHHHHHHMYKRNERLNLIRKRVDQYGQVAVKDLAIFLQVTPETVRKDLETLENDKLITRTHGGAIQYNHINKEKSYANKWQKQSQVKERIAKKAALQIKSGEIIVIDGGTTTGRIPQYLNDITQTTIVTNSLKIADELNRAIEEQRIQAEVIMLAGKTNTEQDVVRGHMTNELLQRFKFDKAFISCGSFDTSDCYEFDLEEAHASHIMIQKSQLSYLLADSSKRDAHASYRIDGFSEIDYMISDYAKPQNIEYFNQKHWLQI,not soluble
19,MGSDKIHHHHHHMIEYYNFNKSELEKHSRIPLIVKKNNEEIFISLALEMVELIKENNEKNEKTVIICPVGPVGQYPHFVRLVNQFKIDLSNVWFINMDEYLLEDLHWIDVVHPLSFRGFMQKNVYSQIHPTLIMSEEQRIFPDPLDIDSISNKIKELGKIDLCIGGIGLNGHIAFNEPDSTLTVQEFLKLGSRVLPISVETKVMNGLTVLKGAVEEVPNYCVTIGMSEIFQAKKIRLAVFRDWHHAVIRKTVCSKPDTGFPSTLMQIHTNCSIYLNESLAN,not soluble
20,MSLKINVADFHGTYLENPRTVNNFSLTGTDQKVFDNSSLQGRWTLVFFGFTNCGYLCPTTMAELGKMYRILEKKGVKNLPQVVMISIDPQRDSLDKLGSYVTSFHKSFYGARGEEDSIKSMTHEMGIAYAKINSKESSEPENYDIQHSGAVMLFNPQGELNAFFTTPHHADLLAKDYVLLVSEGHHHHHH,soluble
